The record followed here is patent US20120148593A1 (published 2012).

The chains are these.
B1: mu18H10 murine monoclonal antibody (antibody, mouse IgG2b, V domains shown)
VH: QVQLQQSGADLVRPGALVKLSCTASGFNIKDSYIHWVKKRPEWGLEWIGWTDPENVNSIYDPRFQGKASITADTSSNTAFLQLTSLTSEDTAVYYCARGYNGVYYAMDYWGQGTTVTVSS
VL: QIVLTQSPSIMSASLGEEITLTCSASSSVIYMHWYQQKSGTSPKLLIYRTYNLASGVPSRFSGSGSGTFYSLTISSVEAEDAADYYCHQWSSFPYTFGGGTKLEIKR
B2: chimeric 7E3 MAb (antibody, V domains shown)
VH: QVTLKESGPGILQPSQTLSLTCSFSGFSLTTYNIGVGWIRQPSGKGLEWLAHIWWNDNIYYNTVLKSRLTFSKDTSNNQVFLKIASVDIADTATYYCIRMAEGRYDAMDYWGQGTSVTVSS
VL: AIQMTQSTSSLSASLGDRVTINCRASQDITNYLNWYQQKPDGTVRLLIYYTSKLHSGAPSRFSGRGSGTDYSLTISNLEQEDIATYFCQQGNTFPWTFGGGTKLEIKR
notes: also called 7E3 CHIM; 7E3 chimeric antibody
B3: chimeric 18H10 MAb (antibody, V domains shown)
VH: QVQLQQSGADLVRPGALVKLSCTASGFNIKDSYIHWVKKRPEWGLEWIGWTDPENVNSIYDPRFQGKASITADTSSNTAFLQLTSLTSEDTAVYYCARGYNGVYYAMDYWGQGTTVTVSS
VL: QIVLTQSPSIMSASLGEEITLTCSASSSVIYMHWYQQKSGTSPKLLIYRTYNLASGVPSRFSGSGSGTFYSLTISSVEAEDAADYYCHQWSSFPYTFGGGTKLEIKR
notes: also called 18H10chim; 18H10 chimeric antibody
B4: chimeric 15C1 MAb (antibody, V domains shown)
VH: DVQLQESGPDLIQPSQSLSLTCTVTGYSITGGYSWHWIRQFPGNKLEWMGYIHYSGYTDFNPSLKTRISITRDTSKNQFFLQLNSVTTEDTATYYCARKDPSDGFPYWGQGTLVTVSA
VL: DIVMTQSPATLSVTPGDRVSLSCRASQSISDHLHWYQQKSHESPRLLIKYASHAISGIPSRFSGSGSGTDFTLSIKSVEPEDIGVYYCQNGHSFPLTFGAGTKLELKR
notes: also called 15C1 CHIM; 15C1 chimeric antibody
B5: hu15C1 4-28 QC 30/A26 variant (antibody, V domains shown)
VH: QVQLQESGPGLVKPSDTLSLTCAVSGYSISGGYSWHWIRQPPGKGLEWMGYIHYSGYTDFNPSLKTRITISRDTSKNQFSLKLSSVTAVDTAVYYCARKDPSDGFPYWGQGTLVTVSS
VL: EIVLTQSPDFQSVTPKEKVTITCRASQSISDHLHWYQQKPDQSPKLLIKYASHAISGVPSRFSGSGSGTDFTLTINSLEAEDAATYYCQNGHSFPLTFGGGTKVEIK
notes: also called 15C1 4-28° C.30/A26
B6: hu15C1 4-28 QC 48/A26 variant (antibody, V domains shown)
VH: QVQLQESGPGLVKPSDTLSLTCAVSGYSITGGYSWHWIRQPPGKGLEWIGYIHYSGYTDFNPSLKTRITISRDTSKNQFSLKLSSVTAVDTAVYYCARKDPSDGFPYWGQGTLVTVSS
VL: EIVLTQSPDFQSVTPKEKVTITCRASQSISDHLHWYQQKPDQSPKLLIKYASHAISGVPSRFSGSGSGTDFTLTINSLEAEDAATYYCQNGHSFPLTFGGGTKVEIK
notes: also called 15C1 4-28° C.48/A26
B7: hu15C1 4-28 QC 69/A26 variant (antibody, V domains shown)
VH: QVQLQESGPGLVKPSDTLSLTCAVSGYSITGGYSWHWIRQPPGKGLEWMGYIHYSGYTDFNPSLKTRITMSRDTSKNQFSLKLSSVTAVDTAVYYCARKDPSDGFPYWGQGTLVTVSS
VL: EIVLTQSPDFQSVTPKEKVTITCRASQSISDHLHWYQQKPDQSPKLLIKYASHAISGVPSRFSGSGSGTDFTLTINSLEAEDAATYYCQNGHSFPLTFGGGTKVEIK
notes: also called 15C1 4-28° C.69/A26
B8: hu15C1 4-28 QC 67/A26 variant (antibody, V domains shown)
VH: QVQLQESGPGLVKPSDTLSLTCAVSGYSITGGYSWHWIRQPPGKGLEWMGYIHYSGYTDFNPSLKTRVTISRDTSKNQFSLKLSSVTAVDTAVYYCARKDPSDGFPYWGQGTLVTVSS
VL: EIVLTQSPDFQSVTPKEKVTITCRASQSISDHLHWYQQKPDQSPKLLIKYASHAISGVPSRFSGSGSGTDFTLTINSLEAEDAATYYCQNGHSFPLTFGGGTKVEIK
notes: also called 15C1 4-28° C.67/A26
B9: mu7E3 murine monoclonal antibody (antibody, mouse IgG1, V domains shown)
VH: QVTLKESGPGILQPSQTLSLTCSFSGFSLTTYNIGVGWIRQPSGKGLEWLAHIWWNDNIYYNTVLKSRLTFSKDTSNNQVFLKIASVDIADTATYYCIRMAEGRYDAMDYWGQGTSVTVSS
VL: AIQMTQSTSSLSASLGDRVTINCRASQDITNYLNWYQQKPDGTVRLLIYYTSKLHSGAPSRFSGRGSGTDYSLTISNLEQEDIATYFCQQGNTFPWTFGGGTKLEIKR
B10: mu16G7 murine monoclonal antibody (antibody, mouse IgG1, V domains shown)
VH: QVKLQESGAELMKPGASVKISCKATGYKFSDYWIEWIKQRPGHGLEWIGEILPGSGSTNYNEDFKDKATFTSDTSSNTAYMQLSSLTSEDSAVYYCAKEERAYYFGYWGQGTTVTVSS
VL: DVEMTQTPLSLPVSLGDQASISCRSSQSLENSNGNTYLNWYLQKPGQSPQLLIYRVSNRFSGVLDRFSGSGSGTDFTLKISRVEAEDLGVYFCLQVTHVPPTFGAGTKLELKR
B11: mu15C1 murine monoclonal antibody (antibody, mouse IgG1, V domains shown)
VH: DVQLQESGPDLIQPSQSLSLTCTVTGYSITGGYSWHWIRQFPGNKLEWMGYIHYSGYTDFNPSLKTRISITRDTSKNQFFLQLNSVTTEDTATYYCARKDPSDGFPYWGQGTLVTVSA
VL: DIVMTQSPATLSVTPGDRVSLSCRASQSISDHLHWYQQKSHESPRLLIKYASHAISGIPSRFSGSGSGTDFTLSIKSVEPEDIGVYYCQNGHSFPLTFGAGTKLELKR

In the first assay the target is T1, recombinant soluble MD-2 purified from baculovirus-infected insect cell supernatants (Homo sapiens (Human), UniProt Q9Y6Y9 19-160).
T1 construct: not shown: C-terminal FLAG and 6xHIS tags
T1 chain: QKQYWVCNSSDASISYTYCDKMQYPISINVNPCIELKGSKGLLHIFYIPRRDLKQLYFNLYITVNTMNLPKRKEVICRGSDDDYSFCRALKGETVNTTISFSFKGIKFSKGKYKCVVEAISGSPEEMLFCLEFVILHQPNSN
The assay can be described thus: direct ELISA, MD-2 coated at 5 µg/ml. How it is done:
Recombinant soluble MD-2 with C terminal FLAG and histidine epitope tags was coated at a concentration of 5 μg/ml in 50 μl PBS on ELISA plates (Nunc Maxisorp). Wells were blocked with 200 μl PBS 2% BSA and subsequently incubated with the appropriate MAb at the indicated concentration in PBS 1% BSA. Following 3 wash steps with PBS 0.05% Tween 20, 50 μl HRP conjugated goat anti-mouse IgG (H+L) at a 1:5000 dilution was added to the wells. […] Plates were read at a wavelength of 650 nm.
Using direct ELISA, no binding of mu18H10 to recombinant soluble MD-2 generated with the baculovirus expression system was detected (FIG. 5a).
On the technique in general: ELISA stands for enzyme-linked immunosorbent assay.
For B1, the binding result was “no binding”.

Another assay concerns the target T2, human TLR4/MD-2 receptor complex expressed on transfected cells (human, UniProt O00206 24-839; Q9Y6Y9 19-160).
T2 construct: Tags differ by cell line: CHO-K1: N-terminal c-myc on TLR4, C-terminal c-Myc and Protein C on MD-2; also called TLR4/MD-2 complex; hTLR4/MD-2
Briefly: flow cytometry, TLR4/MD-2 transfected CHO cells. On the procedure:
FIG. 41 is a graph depicting that the hu15C1 humanized antibody that includes VH 4-28 shown in SEQ ID NO:45 (“15C1 4-28/A26”) and variants thereof in which residues at chosen positions have been replaced by the corresponding amino acid in the given human germline (“15C1 4-28° C.30/A26”; “15C1 4-28° C.48/A26”; “15C1 4-28° C.67/A26” and “15C1 4-28° C.69/A26”, see TABLE 1) are capable of binding specifically to the human TLR4/MD-2 complex on the surface of transfected CHO cells. MAb binding to the TLR4/MD-2 transfected CHO cells is shown by flow cytometry using the hu15C1 antibodies or the chimeric 15C1 (“15C1 CHIM”) (described above) at the concentrations indicated. Binding is measured as a cellular Mean Fluorescence Intensity (MFI) value.
For orientation: Flow cytometry measures light scatter and fluorescence of single cells or particles in a stream.
Turning to B2, the binding result is listed as “binds”.

For B3, the binding result is given as “binds”.

For the molecule B4, the binding result is “binds”.

On to B5, for which the binding result is listed as “binds”.

Turning to B6, the binding result was “binds”.

Turning to B7, the binding result is “binds”.

B8: the binding result is “binds”.

The next assay concerns the target T3, human MD-2 expressed in transfected HEK 293 cells (human, UniProt Q9Y6Y9 19-160).
T3 construct: also called MD-2 alone; wt MD-2
T3 chain: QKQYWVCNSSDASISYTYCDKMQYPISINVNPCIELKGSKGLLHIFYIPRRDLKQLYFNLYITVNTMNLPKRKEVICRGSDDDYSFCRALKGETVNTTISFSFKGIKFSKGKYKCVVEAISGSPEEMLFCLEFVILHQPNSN
The assay can be described thus: sandwich ELISA, capture on anti-FLAG M2, biotinylated mu18H10. On the procedure:
For sample preparation, HEK 293 cells were transfected with the appropriate plasmid constructs using the Fugene 6™ transfection reagent as described in paragraph G above. 48 hours post-transfection, cells were collected and cleared by centrifugation. Cells were subsequently incubated with biotinylated mu18H10 (10 μg/ml) and lysed in 20 mM Tris pH 7.4, 150 mM NaCl, 1% NP40 containing COMPLETE™ protease inhibitors (Roche).
To perform the sandwich ELISA, Nunc maxisorp plate wells were coated with 50 μl of the anti-FLAG™ M2 MAb (Sigma) at a concentration of 5 μg/ml in PBS. Wells were blocked with 200 μl PBS 2% BSA and subsequently incubated with 50 μl of the appropriate samples at the indicated dilution. Wells were washed three times with 200 μl PBS 0.05% Tween 20 and incubated with 50 μl of the appropriate antibody (10 μg/ml for biotinylated mu18H10 and 12D4, 1 μg/ml for the polyclonal […]). Following a wash step as above, wells were incubated with 50 μl of the appropriate detection antibody (HRP conjugated streptavidin at a dilution of 1:1500 for the biotinylated MAbs and HRP conjugated anti-rabbit IgG (H+L) at a dilution of 1:5000 for the polyclonal rabbit Ab). […] Plates were read at a wavelength of 650 nm.
With B1, the binding result is recorded as “no binding (tested: 10 µg/ml)”.

In the next assay the target is T2, human TLR4/MD-2 receptor complex …. The assay can be described thus: flow cytometry, mock transfected vs TLR4/MD-2 transfected cells.
Target sequence in this assay (O00206 24-839 limits assumed, chain 1 of 2, one chain of several): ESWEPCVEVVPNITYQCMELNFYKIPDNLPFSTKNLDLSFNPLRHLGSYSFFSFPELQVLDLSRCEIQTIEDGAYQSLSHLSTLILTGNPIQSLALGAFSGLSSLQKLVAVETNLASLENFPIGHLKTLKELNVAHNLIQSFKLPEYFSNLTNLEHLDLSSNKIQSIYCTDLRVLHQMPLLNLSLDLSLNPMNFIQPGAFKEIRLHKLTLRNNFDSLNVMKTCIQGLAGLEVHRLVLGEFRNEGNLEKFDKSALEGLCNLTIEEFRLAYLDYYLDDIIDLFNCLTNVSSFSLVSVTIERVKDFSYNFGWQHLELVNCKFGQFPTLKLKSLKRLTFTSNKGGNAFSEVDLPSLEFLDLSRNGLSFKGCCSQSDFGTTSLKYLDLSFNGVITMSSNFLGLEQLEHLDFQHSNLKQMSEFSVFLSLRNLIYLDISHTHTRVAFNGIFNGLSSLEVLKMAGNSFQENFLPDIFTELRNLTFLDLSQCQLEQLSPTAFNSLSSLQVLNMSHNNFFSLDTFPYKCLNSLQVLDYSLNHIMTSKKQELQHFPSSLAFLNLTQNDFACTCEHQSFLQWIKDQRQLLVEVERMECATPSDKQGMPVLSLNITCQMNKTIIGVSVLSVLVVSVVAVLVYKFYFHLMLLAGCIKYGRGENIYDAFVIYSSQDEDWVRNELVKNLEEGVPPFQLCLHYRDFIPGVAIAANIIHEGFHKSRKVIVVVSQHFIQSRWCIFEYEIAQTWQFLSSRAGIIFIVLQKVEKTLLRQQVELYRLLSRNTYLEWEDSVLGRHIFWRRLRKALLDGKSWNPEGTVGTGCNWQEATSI
Turning to B9, the binding result is on record as “binds”.

In the case of B10, the binding result was “binds”.

As to B1, the binding result was “binds”.

Regarding B11, the binding result is on record as “binds”.
